Source: patent publication US20250186614A1, “COMPACT DRUG RESPONSIVE DOMAINS FOR REGULATION OF FUNCTION/ABUNDANCE AND DELIVERY OF POLYPEPTIDE PAYLOADS” (OBSIDIAN THERAPEUTICS, INC., priority 2022, published 2025)
Changes are numbered by the printed parent chain. Names and notes keep the numbering of the source.

B1: FKBP-255: FKBP13 DRD-AcGFP construct of Table 10 (protein)
chain: HCPIKSRKGDVLHMHYTGKLEDGTEFDSSLPRNQPFVFSLGTGERIKGWDQGLLGMCEREKRKLVIPSELGYGERGWPPKIPGGATLVFEVELLKIER
modifications: Description of sequence: Construct Name: FKBP-255; Mutation(s): Q72R Q84E A117W V85R DRD G99R
B2: FKBP-196 (protein)
chain: B1 chain with R59G, I96V
modifications: Description of sequence: Construct Name: FKBP-196; Mutation(s): Q72R Q84E A117W V85R DRD I136V
B3: FKBP-199: FKBP13 DRD-AcGFP construct of Table 10 (protein)
chain: B1 chain with E58L, R59G
modifications: Description of sequence: Construct Name: FKBP-199; Mutation(s): Q72R Q84E A117W V85R DRD E98L
B4: FKBP-161 (protein)
chain: B1 chain with M14S, R59G
modifications: Description of sequence: Construct Name: FKBP-161; Mutation(s): Q72R Q84E A117W DRD M54S V85R
B5: FKBP-194 (protein)
chain: B1 chain with R59G, L64V
modifications: Description of sequence: Construct Name: FKBP-194; Mutation(s): Q72R Q84E A117W V85R DRD L104V
B6: FKBP-192: FKBP13 DRD-AcGFP construct of Table 10 (protein)
chain: B1 chain with P35L, R59G
modifications: Description of sequence: Construct Name: FKBP-192; Mutation(s): Q72R Q84E A117W V85R DRD P75L
B7: FKBP-191: FKBP13 DRD-AcGFP construct of Table 10 (protein)
chain: B1 chain with G9S, R59G
modifications: Description of sequence: Construct Name: FKBP-191; Mutation(s): Q72R Q84E A117W V85R DRD G49S
B8: FKBP-198: FKBP13 DRD-AcGFP construct of Table 10 (protein)
chain: B1 chain with R59G, K61W
modifications: Description of sequence: Construct Name: FKBP-198; Mutation(s): Q72R Q84E A117W V85R DRD K101W
B9: FKBP-193 (protein)
chain: B1 chain with D50A, R59G
modifications: Description of sequence: Construct Name: FKBP-193; Mutation(s): Q72R Q84E A117W V85R DRD D90A
B10: FKBP-160 (protein)
chain: B1 chain with M14A, R59G
modifications: Description of sequence: Construct Name: FKBP-160; Mutation(s): Q72R Q84E A117W V85R DRD M54A
B11: FKBP-176 (protein)
chain: B1 chain with M14A, R45V, R59G, G76E
modifications: Description of sequence: Construct Name: FKBP-176; Mutation(s): Q72R Q84E A117W DRD M54A G116E
B12: FKBP-180 (protein)
chain: B1 chain with M14A, R45V, R59G, F89T
modifications: Description of sequence: Construct Name: FKBP-180; Mutation(s): Q72R Q84E A117W DRD M54A F129T
B13: FKBP-190 (protein)
chain: B1 chain with M14A, R59G, F89T
modifications: Description of sequence: Construct Name: FKBP-190; Mutation(s): Q72R Q84E A117W V85R DRD M54A F129T
B14: FKBP-173 (protein)
chain: B1 chain with M14A, R45V, R59G, L93G
modifications: Description of sequence: Construct Name: FKBP-173; Mutation(s): Q72R Q84E A117W DRD M54A L133G
B15: FKBP-175 (protein)
chain: B1 chain with D10A, M14A, T17I, R45V, R59G, I96L
modifications: Description of sequence: Construct Name: FKBP-175; Mutation(s): Q72R Q84E A117W DRD M54A D50L T57I I136L
B16: FKBP-184 (protein)
chain: B1 chain with S6G, M14A, R59G, V91G
modifications: Description of sequence: Construct Name: FKBP-184; Mutation(s): Q72R Q84E A117W V85R DRD M54A S36G V131G
B17: FKBP-174 (protein)
chain: B1 chain with S6G, M14A, R45V, R59G, V91G
modifications: Description of sequence: Construct Name: FKBP-174; Mutation(s): Q72R Q84E A117W DRD M54A S36G V131G
B18: FKBP-179 (protein)
chain: B1 chain with H13G, M14A, R32L, R45V, R59G
modifications: Description of sequence: Construct Name: FKBP-179; Mutation(s): Q72R Q84E A117W DRD M54A H53G R72L
B19: FKBP-183 (protein)
chain: B1 chain with M14A, R59G, L93G
modifications: Description of sequence: Construct Name: FKBP-183; Mutation(s): Q72R Q84E A117W V85R DRD M54A L133G

Assay: Example 4: dose response of FKBP constructs 160-255, Ec50, Ec90 and fold change (raw and normalized to mCherry)
Type: cell-based
Settings: FKBP constructs 160-255; not normalized; read-out: EC90
Method: Additional experiments were performed for constructs FKBP-160-292.

In order of falling EC90:
1. B9  13000 nM
2. B4  512 nM
3. B7  367 nM
4. B8  253 nM
5. B6  230 nM
6. B2  115 nM
7. B5  102 nM
8. B1  101 nM
9. B3  71.7 nM
10. B10  42.2 nM

Same assay, conditions: fold change during initial analysis

In order of falling “FC (fold change)” value:
1. B6  55.0
2. B8  54.3
3. B7  50.6
4. B9  37.8
5. B2  34.7
6. B1  33.0
7. B4  32.3
8. B3  27.1
9. B10  25.7
10. B5  24.8
11. B15  7.25
12. B11  6.8
13. B14  4
14. B19  4
15. B18  3.1
16. B12  1.2
17. B16  1
18. B13  0.9
19. B17  0.9

Same assay, conditions: normalized to mCherry; read-out: EC90 (Norm)

In order of falling EC90:
1. B9  15000 nM
2. B4  541 nM
3. B7  391 nM
4. B8  274 nM
5. B6  228 nM
6. B5  122 nM
7. B2  113 nM
8. B1  101 nM
9. B3  67.5 nM
10. B10  48.2 nM
